According to paper PMC3534962:

B1: phosphofructokinase 1 (PFK1): OGT overexpression (protein)
parent chain: MAAVDLEKLRASGAGKAIGVLTSGGDAQGMNAAVRAVTRMGIYVGAKVFLIYEGYEGLVEGGENIKQANWLSVSNIIQLGGTIIGSARCKAFTTREGRRAAAYNLVQHGITNLCVIGGDGSLTGANIFRSEWGSLLEELVAEGKISETTARTYSHLNIAGLVGSIDNDFCGTDMTIGTDSALHRIMEVIDAITTTAQSHQRTFVLEVMGRHCGYLALVSALASGADWLFIPEAPPEDGWENFMCERLGETRSRGSRLNIIIIAEGAIDRNGKPISSSYVKDLVVQRLGFDTRVTVLGHVQRGGTPSAFDRILSSKMGMEAVMALLEATPDTPACVVTLSGNQSVRLPLMECVQMTKEVQKAMDDKRFDEATQLRGGSFENNWNIYKLLAHQKPPKEKSNFSLAILNVGAPAAGMNAAVRSAVRTGISHGHTVYVVHDGFEGLAKGQVQEVGWHDVAGWLGRGGSMLGTKRTLPKGQLESIVENIRIYGIHALLVVGGFEAYEGVLQLVEARGRYEELCIVMCVIPATISNNVPGTDFSLGSDTAVNAAMESCDRIKQSASGTKRRVFIVETMGGYCGYLATVTGIAVGADAAYVFEDPFNIHDLKVNVEHMTEKMKTDIQRGLVLRNEKCHDYYTTEFLYNLYSSEGKGVFDCRTNVLGHLQQGGAPTPFDRNYGTKLGVKAMLWLSEKLREVYRKGRVFANAPDSACVIGLKKKAVAFSPVTELKKDTDFEHRMPREQWWLSLRLMLKMLAQYRISMAAYVSGELEHVTRRTLSMDKGF
B2: phosphofructokinase 1 (PFK1): S529A (protein)
parent chain: MAAVDLEKLRASGAGKAIGVLTSGGDAQGMNAAVRAVTRMGIYVGAKVFLIYEGYEGLVEGGENIKQANWLSVSNIIQLGGTIIGSARCKAFTTREGRRAAAYNLVQHGITNLCVIGGDGSLTGANIFRSEWGSLLEELVAEGKISETTARTYSHLNIAGLVGSIDNDFCGTDMTIGTDSALHRIMEVIDAITTTAQSHQRTFVLEVMGRHCGYLALVSALASGADWLFIPEAPPEDGWENFMCERLGETRSRGSRLNIIIIAEGAIDRNGKPISSSYVKDLVVQRLGFDTRVTVLGHVQRGGTPSAFDRILSSKMGMEAVMALLEATPDTPACVVTLSGNQSVRLPLMECVQMTKEVQKAMDDKRFDEATQLRGGSFENNWNIYKLLAHQKPPKEKSNFSLAILNVGAPAAGMNAAVRSAVRTGISHGHTVYVVHDGFEGLAKGQVQEVGWHDVAGWLGRGGSMLGTKRTLPKGQLESIVENIRIYGIHALLVVGGFEAYEGVLQLVEARGRYEELCIVMCVIPATISNNVPGTDFSLGSDTAVNAAMESCDRIKQSASGTKRRVFIVETMGGYCGYLATVTGIAVGADAAYVFEDPFNIHDLKVNVEHMTEKMKTDIQRGLVLRNEKCHDYYTTEFLYNLYSSEGKGVFDCRTNVLGHLQQGGAPTPFDRNYGTKLGVKAMLWLSEKLREVYRKGRVFANAPDSACVIGLKKKAVAFSPVTELKKDTDFEHRMPREQWWLSLRLMLKMLAQYRISMAAYVSGELEHVTRRTLSMDKGF
B3: phosphofructokinase 1 (PFK1): PUGNAc (protein)
parent chain: MAAVDLEKLRASGAGKAIGVLTSGGDAQGMNAAVRAVTRMGIYVGAKVFLIYEGYEGLVEGGENIKQANWLSVSNIIQLGGTIIGSARCKAFTTREGRRAAAYNLVQHGITNLCVIGGDGSLTGANIFRSEWGSLLEELVAEGKISETTARTYSHLNIAGLVGSIDNDFCGTDMTIGTDSALHRIMEVIDAITTTAQSHQRTFVLEVMGRHCGYLALVSALASGADWLFIPEAPPEDGWENFMCERLGETRSRGSRLNIIIIAEGAIDRNGKPISSSYVKDLVVQRLGFDTRVTVLGHVQRGGTPSAFDRILSSKMGMEAVMALLEATPDTPACVVTLSGNQSVRLPLMECVQMTKEVQKAMDDKRFDEATQLRGGSFENNWNIYKLLAHQKPPKEKSNFSLAILNVGAPAAGMNAAVRSAVRTGISHGHTVYVVHDGFEGLAKGQVQEVGWHDVAGWLGRGGSMLGTKRTLPKGQLESIVENIRIYGIHALLVVGGFEAYEGVLQLVEARGRYEELCIVMCVIPATISNNVPGTDFSLGSDTAVNAAMESCDRIKQSASGTKRRVFIVETMGGYCGYLATVTGIAVGADAAYVFEDPFNIHDLKVNVEHMTEKMKTDIQRGLVLRNEKCHDYYTTEFLYNLYSSEGKGVFDCRTNVLGHLQQGGAPTPFDRNYGTKLGVKAMLWLSEKLREVYRKGRVFANAPDSACVIGLKKKAVAFSPVTELKKDTDFEHRMPREQWWLSLRLMLKMLAQYRISMAAYVSGELEHVTRRTLSMDKGF

Tests used:
[1] = co-immunoprecipitation with Flag-PFK1; details: glycan gained; control: WT Flag-PFK1 without OGT overexpression
[2] = native gel electrophoresis of immunopurified Flag-PFK1; details: glycan gained; control: Flag-PFK1 from untreated 293T cells
[3] = colorimetric NADPH assay; details: glycan lost; control: WT PFK1 H1299 knock-in cells
[4] = GSH level under hypoxic conditions; details: glycan lost; control: WT PFK1 H1299 knock-in cells, hypoxia
[5] = [1,2-13C]-glucose labelling, LC-MS; details: glycan lost; control: WT PFK1 H1299 knock-in cells
[6] = NADPH level under hypoxic conditions; details: glycan lost; control: WT PFK1 H1299 knock-in cells, hypoxia
[7] = monochlorobimane fluorimetric GSH assay; details: glycan lost; control: WT PFK1 H1299 knock-in cells
[8] = 14CO2 release from [1-14C]- vs [6-14C]-glucose; details: glycan lost; control: WT PFK1 H1299 knock-in cells
[9] = co-immunoprecipitation after OGT overexpression; details: glycan lost; control: WT Flag-PFK1
[10] = proliferation with and without OGT overexpression; details: glycan lost; control: WT PFK1 H1299 knock-in cells, hypoxia
[11] = glycolytic rate with and without OGT overexpression; details: glycan lost; control: WT PFK1 H1299 knock-in cells
[12] = lactate production with and without OGT overexpression; details: glycan lost; control: WT PFK1 H1299 knock-in cells
[13] = untargeted flow-injection mass spectrometry metabolite profiling; details: glycan lost; control: WT PFK1 H1299 knock-in cells

| Protein | oligomerisation [1] | oligomerisation [2] | other: OGT-induced increase in NADPH, fold_change [3] | other: cellular GSH level [4] | other: OGT-induced increase in PPP flux, fold_change [5] | other: cellular NADPH level [6] | other: OGT-induced increase in GSH, fold_change [7] | other: OGT-induced increase in PPP flux [8] | other: OGT-induced loss of subunit co-immunoprecipitation [9] | other: OGT-induced increase in proliferation [10] | other: OGT-induced decrease in glycolytic rate, other: percent decrease [11] | other: OGT-induced decrease in lactate production, other: percent decrease [12] | other: steady-state metabolite concentrations [13] |
| --- | --- | --- | --- | --- | --- | --- | --- | --- | --- | --- | --- | --- | --- |
| B1 | decreases | decreases | – | – | – | – | – | – | – | – | – | – | – |
| B2 | – | – | abolishes | decreases | abolishes | decreases | decreases | abolishes | abolishes | abolishes | abolishes | abolishes | decreases |
| B3 | – | decreases | – | – | – | – | – | – | – | – | – | – | – |
